Reference: US8691225B2, “Antibodies against the ectodomain of ErbB3 and uses thereof” (Merrimack Pharmaceuticals, Inc., priority 2007, dated 2014)
Where two headings read alike, the source gives them in different places.

Experiments:
[1] = target: T1, ErbB3 in AdrR xenografts (Homo sapiens, UniProt P21860); assay: total ErbB3 in AdrR xenografts in vivo by ELISA; set-up: species or system mouse
T1 construct: host or cells: AdrR (NCI/AdrR) ovarian cancer cells
Description: Briefly, the samples were pulverized in a cryopulverizer (Covaris Inc). Tumors were stored in special bags (pre-weighed before the addition of the tumor) and placed in liquid nitrogen while handling them. For small tumors, 200 μL of Lysis buffer was first added to the bag with the tumor, frozen in liquid nitrogen and then pulverized to improve the recovery of the tumor from the bag. Pulverized tumors were transferred to 2 ml EPPENDORF tubes and placed in liquid nitrogen until lysed. Tumors were lysed in Lysis buffer supplemented with protease and phosphatase inhibitors. Lysis Buffer was added to the tumor aliquots in a final concentration of 62.5 mg/ml. Tumor samples were homogenized by vortexing for 30 seconds and letting them sit on ice for 30 min. The lysates were spun for 10 minutes in QIAGEN […] columns for further homogenization of the samples. Cleared lysates were aliquoted into fresh tubes.
The BCA assay is performed as set forth substantially as described in the materials and methods section supra.
The total levels of ErbB3 were determined by ELISA. The ELISA reagents were purchased from R&D Systems as DUOSET kits. […] Fifty microliters of SUPERSIGNAL ELISA Pico substrate was added and readout was performed on a Fusion plate reader. Data was analyzed using Microsoft EXCEL. […]

[2] = test system: heregulin-mediated phosphorylation of ErbB3 and AKT in MALME-3M cells; assay: heregulin-mediated signaling ELISA (pErbB3, pAKT); type: cell-based, human; settings: for IC50: IgG2 isotype, 5 nM HRG
Description: (§1) MALME-3M cells and OVCAR8 cells are separately seeded in 96 well tissue culture plates (35,000 cells per well) and grown in RPMI-1640 media supplemented with antibiotics, 2 mM L-glutamine and 10% FBS for 24 hours at 37° C. and 5% carbon dioxide. Cells are serum-starved in RPMI-1640 media with antibiotics and 2 mM L-glutamine for 24 hours at 37° C. and 5% carbon dioxide. […] Controls are HRG without added antibody and untreated cells (no HRG and no Ab). Cells are washed with cold PBS then harvested with mammalian protein extract (M-PER) lysis buffer (Pierce, 78505) containing 150 mM NaCl, 5 mM sodium pyrophosphate (Sigma, 221368-100G), 10 uM bpV(phen) (Calbiochem, 203695), 50 μM oxophenylarsine (Calbiochem, 521000), 1 mM sodium orthovanadate (Sigma, 56508-10G), and protease inhibitor cocktail (Sigma, P2714). Cell lysates are diluted two-fold with 4% bovine serum albumin in PBST (0.2% tween-20), then analyzed by ELISA for phosphorylation of either ErbB3, or AKT (a downstream effector of ErbB3).
(§2) In order to test for AKT phosphorylation, lysates are run on an ELISA plate with a capture antibody specific to AKT and biotinylated detection antibody specific to phospho-serine 473 of phospho-AKT (pAKT). Signal is generated with streptavidin conjugated to horseradish-peroxidase reacted with SUPERSIGNAL ELISA Pico chemiluminescent substrate (Pierce, 37070). In order to assay for ErbB3 phosphorylation, lysates are run on an ELISA plate with a capture antibody specific for ErbB3 and an anti-phosphotyrosine detection antibody conjugated to horseradish-peroxidase. This is then reacted with the same chemiluminescent substrate. Luminescent signal on the ELISAs is measured using a luminometer.

[3] = test system: heregulin-mediated phosphorylation of ErbB3 and AKT in OVCAR8 cells; assay: heregulin-mediated signaling ELISA (pErbB3, pAKT); type: cell-based, human; settings: for IC50: IgG2 isotype, 5 nM HRG
Description: as §1, §2

[4] = test system: MCF-7 cells; assay: trans-well cell migration assay; type: cell-based, human; settings: 8 uM Ab #6, 10% FBS chemoattractant, 16 hours
Description: The cells are then transferred to an upper chamber that is separated from a lower chamber by a collagen type I-coated membrane through which the cells can migrate. […] The chambers are incubated at 37° C. for 16 hours and then the cells that migrate through the membrane into the lower chamber are removed using a detachment buffer and incubated with a cell-binding fluorescent dye. Fluorescence is quantitated using a fluorescent plate reader.

[5] = target: T2, ErbB2/3 complex in AdrR cells (Homo sapiens, UniProt P21860); assay: ErbB2-ErbB3 protein complex formation (immunoprecipitation, blot); type: cell-based; settings: 250 nM Ab #6, 10 nM HRG
T2 construct: host or cells: AdrR ovarian cancer cells
Description: The cells are lysed in 25 mM Tris, pH+7.5, 150 mM NaCl, 1 mM EDTA, 1.0% Triton X-100, 1.0% CHAPS, 10% v/v glycerol, containing 0.2 mM PMSF, 50 mTU/mL aprotinin, and 100 uM leupeptin, and the crude lysate are centrifuged briefly to remove insoluble material. Supernatant is transferred to a new EPPENDORF tube, and anti-ErbB3 antibody (Santa Cruz sc-285) is added at 1:500 dilution. Supernatants are incubated overnight with gentle shaking at 4 C. 60 ul of Immobilized Protein A/G agarose beads (Pierce, Rockford, Ill., #20421) is first washed with 1× PBS. The cell lysate-antibody mixture is added to the PBS washed beads, and incubated for 2 hours with gentle shaking at 4° C. The immunoprecipitates are then washed with ice-cold lysis buffer 3 times, resuspended in 30 ul of 2× SDS sample buffer, heat denatured at 95° C. for 7 minutes and run on 4-12% Bis-Tris Gels. SDS-PAGE and electro-transferred to PVDF membrane in Tri-Glycine buffer with 10% MeOH. […] The signal is detected using goat anti-rabbit IRDye800® infrared fluorescent dye-conjugated secondary antibody at 1:5000 (2 ul) in 10 ml of blocking buffer (Li-Cor Biosciences, #927-40000).

B1: Ab #6: human anti-ErbB3 antibody from Fab-phage library, CDRs SEQ ID NOs:7-12; used as IgG1 and IgG2 isotypes; in phase I trials as MM-121 (antibody, V domains shown)
VH: EVQLLESGGGLVQPGGSLRLSCAASGFTFSHYVMAWVRQAPGKGLEWVSSISSSGGWTLYADSVKGRFTISRDNSKNTLYLQMNSLRAEDTAVYYCTRGLKMATIFDYWGQGTLVTVSS
VL: QSALTQPASVSGSPGQSITISCTGTSSDVGSYNVVSWYQQHPGKAPKLIIYEVSQRPSGVSNRFSGSKSGNTASLTISGLQTEDEADYYCCSYAGSSIFVIFGGGTKVTVL
With B1 the “downregulation of ErbB3 in xenografts” value [1] was “downregulated ErbB3”, the “extent of inhibition of phosphorylation of AKT and ErbB3” value ([2]; FIGS. 16A-D, MALME-3M cells and OVCAR8 cells) was “essentially complete inhibiton” and the “inhibition of heregulin-mediated signaling” value ([2]; MALME-3M cells) was “potent inhibitor of heregulin-mediated signaling”. For the same molecule, the IC50 ([2]; MALME-3M cells, read-out: IC50, heregulin-mediated phosphorylation of ErbB3) was 15 nM, the IC50 ([2]; MALME-3M cells, read-out: IC50, phosphorylation of AKT) was 11 nM and the “inhibition of heregulin-mediated signaling” value [3] was “potent inhibitor of heregulin-mediated signaling”. The IC50 ([3]; read-out: IC50, heregulin-mediated phosphorylation of ErbB3) was 24 nM, the IC50 ([3]; read-out: IC50, phosphorylation of AKT) was 67 nM and the “inhibition of FBS induced cell migration” value [4] was “inhibits the FBS induced cell migration”. For the same molecule, the “inhibition of HRG stimulated ErbB2/3 complex formation” value [5] was “completely inhibit HRG stimulated ErbB2/3 complex formation”.
